We go through 1 molecule from article PMC8097376 (EMBO Reports, 2021).

Experiment [1] has as its target T1, RBD mutant derived from SARS-CoV-2 strain B.1.1.7 (UK) (SARS-CoV-2, B.1.1.7 (RBD N501Y), N501Y).
T1 construct: also called RBD_(B.1.1.7); source: Expi293 cells, purified
Put plainly: BLI. The settings on record: both partners purified.

Experiment [2] addresses T2, RBD mutant derived from SARS-CoV-2 strain B.1.351 (South Africa) (SARS-CoV-2, B.1.351 (RBD K417N, E484K, …, K417N | E484K | N501Y)).
T2 construct: also called RBD_(B.1.351); source: Expi293 cells, purified
Briefly: BLI. The settings on record: both partners purified.

B1: nanobody NM1226 (VHH)
VHH: QVQLVESGGGSVQPGGSLRLSCLGSGSLDYYAIGWFRQAPGKEREGVSCIASSGDRTIYADSVKGRFTISRDYGKNTVYLQMNSLKPEDTAMYYCAALQGSYYYTGFVANEYDYWGQGAPVTVSS
The Kd is the constant that tells how readily two partners part at equilibrium. On to B1, for which the Kd in experiment [1] is around 5.4 nM; in experiment [2] it was around 5.5 nM.
